Experimental data: the RNAGym collection of RNA variant scans (doi:10.1073/pnas.2313332121)

B1: TPR t1 (parent)
chain: GACCAAUCUGCCCUCAGAGCUCGAGAACAUCUUCGGAUGCAGAGGAGGCAGGCUUCGGUGGCGCGAUAGCGCCAACGUCCUCAACCUCCAAUGCAUCCCACCACAUGAUGAUGCCUGAAGAGCCUUGGUUUUUUG

Variants of: B1
Assay: polymerase ribozyme fitness, log enrichment relative to wild type (log ratio); higher = more active; in vitro selection for triplet polymerase activity
Procedure, shortened: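 Libraries of mutants in each subunit of a heterodimeric triplet polymerase ribozyme were generated by PCR and transcribed. In triplicate, each went through one in vitro selection round: annealing with biotinylated primer, partner subunit and triplets; frozen incubation at −7 °C; gel excision of extended constructs; streptavidin-bead capture; RT-PCR. Fitness, taken from Illumina sequencing of input and output libraries, is the logarithm of a genotype's enrichment over wild-type enrichment, averaged across replicates with inverse-variance weights. The logarithm is base 2, and genotypes needed ≥10 input reads and ≥1 read per output to be kept.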

Variant | polymerase ribozyme fitness (log ratio)
C53A G110U | -1.02
C53G G61U G77U C101G G120C | -3.46
C53G C72G C88A | -0.997
G52U C62A | -2.89
G52U G69U A91C C104A | -2.27
C53A C85A G117A U125G | -3.17
G52A U78C C86A C124G G128A | -1.71
C53U U59A C89A U130G | -3.42
G52C C72A | -1.99
C53A C72U C104U G113C | -2.1
C53U C72G C88U A105G | -2.32
C53A G63A | -0.638
C53A G63U | -1.77
G52U G57C C97G C114A A119U | -6.02
C53U A91U | -2.05
C53G C104U C114U G120U C123G C124A | -0.873
C53U C82A A121C | 1.33
G52A C98U | -1.13
C53U U109G | -4.32
G51A U112G | -3.74
C53G C94A C115G G128C | -4.56
U54A A119G G135U | 0.414
G52U G93C G120A G135C | -1.15
U54C C70U | -0.253

Variant | polymerase ribozyme fitness (log ratio)
U54A U92G | -2.06
G52C A119G C124U | 1.65
C53G U87G G127U U133G | -0.973
C53G G127U | -1.46
C53A U78C G113U | -3.16
G51U C62U C89U | -5
C53A C98A C102G U112C | -7.27
C53U C62G | -1.49
G52U C53A | -1.2
U54A C89G | -1.31
U54G C79A | -2.11
C53A U87A A90G C97G U112A | -3.25
G52U C53G U54C U78C C97U | -1.14
G52U U54A G63A C115A | -0.839
G51U G52A | -4.95
U54C G71C A91U U116C | -5.63
C53U C62U A111U A118U | -3.63
G51U C56A G69U U106C | -1.79
C53G C101A | -1.03
G51C G57A | -3.2
G51U C73U U112C | -1.32
G52U G57U G61U A111U | -6.65
G51U G71U C79G | -2.26
U54C G77U C79A C88U | -1.68

Variant | polymerase ribozyme fitness (log ratio)
U54C G61U G71U C82U A83U C114U | -5.85
C53U G71C C82G | -0.812
C53A C76A C88A U92A | -5.92
G51C G60A A111G | -4.94
U54G C62G U81A C98U | -4.8
C53U C72G G113C U129A | -4.76
C53G C72G G117C | -4.69
U54C G60U U133G | -0.398
G51U U125A | -3.77
C53U C89U | -0.632
C53U C86G C115U | -1.83
C53A C115U A119U | 0.429
C53A G60A A121U | 1.33
G52U G61C C124G U131G | -1.09
U54G C56U | -4.05
C53U C85U | -1.78
G52A U106G A111C | -2.25
G52A C82U A90C G117C | -3.56
C53G A119U G127C | -1.2
C53U C70U | -0.962
C53G U81A U131G | -0.825
G51U A111C | -4.77
G51U A111U | -6.02
G52U G60U C73U U96G A121G | -0.386

Variant | polymerase ribozyme fitness (log ratio)
C53U C89A C115U A119G | 0.658
G52U G61C G122A U125G | -1.37
U54A C64U A95C | -0.888
C53U A103U U116C G117U A118C | -5.82
C53G C115U | -1.56
C53U G63A C80A A105C G113U | -6.53
C53U U81C C88A | -1.58
G52C C72A C104U C115G U116C U126G | -6.41
U54A C64U | -0.112
U54A G127C | -0.488
G52U C56U | -2.1
G52A A90C A100U A111G | -2.82
C53G G58A C115A | -0.718
C53A C86A C124A | 1.52
U54C C82U U106A U109A G135U | -4.59
G52A C53A A74G A90G | 0.00151
C53A C99A G117C A118G | -7.29
C53A C88U C101U C123U | 0.64
G52U C88G A118U | -0.0981
G52U U59C | -0.547
U54C C94G C99U | -4.42
C53G C70G | -2.85
C53A U133G | -0.187
C53U G58U | -0.0375

Variant | polymerase ribozyme fitness (log ratio)
G52A C73U C82U | -0.555
C53U U78C G120C | -0.0303
C53G C97A G113A | -4.75
C53U C62G C70U G110A | -6.1
U54C G69U G127C | -0.892
C53A C88U C101A | 0.356
G51C U129A | -5.21
C53A C73A U78G G110U | -0.702
G51U C70U | -3.37
G51U C70G | -5.67
C53U U59C U96A | -1.65
G52A C115U | -2
U54A A95U | -0.632
C53U C64A C72U A95C A105C G122U C123G | -6.4
G52A C124U | 0.924
C53A U54A C80A C114A C124G U125A | -6.7
C53G C73U | -0.493
G52A A74G U78G C80A | -3.14
C53A U81G A90G | 0.427
G51U U112A A118U | -3.5
G52U G60A A105C U106G A118G | -3.93
C53G G63A A95G G110A U125C | -4.78
C53A A90U G117C | -4.59
C53A C72U C98U C123U | -3.81

Variant | polymerase ribozyme fitness (log ratio)
C53A C62A G77C | -0.326
C53U G93A A105C G117U | -6.56
G51C C79A G117A U133G | -5.7
C53U A75G A84U | -0.747
C53U C79A C85U C88U | -2.08
C53U G57C U78C C114A C123U | -3.58
G51C C53G G61U | -2.56
C53U G61A C82A C86G U133A | -1.32
G51U U55G | -3.24
C53U C79G U81C | -1.9
C53A A68U | -6.8
G52U G61C U131A | -1.22
U54A U81A | -0.628
C53U G60U C80U G93C C97U C101U U133A | -3.62
C53A G69C G77U U96A G117A | -5.87
U54C C79A C98U C101A | -5.66
G52A C114A | -2.73
G52A C114U | -2.52
U54A C56U | -0.589
U54A G113A C123U | -2.23
G52U G61A C94U | -0.267
G51U U67A A75U C88A U106A U112C | -6.98
C53A G71C C86A C124A | -2.54
G52A G69U U78A C89U G128U | -2.93

Variant | polymerase ribozyme fitness (log ratio)
G52U G58C G77A U87C U96G | -1.61
G52U A83C C101G C115U | -4.77
G51C A100U | -5.07
C53G G60A C104A U125A U131A | -3.15
G51U G77C A91C C94A | -5.09
G51U G61C U87C C123A | -4.21
C53A A66G C123U | 0.367
C53A G60A C72U A100U G120C C123G | -0.938
C53U G113C | -1.77
C53A G69U G120C | 1.96
U54C G122A G128U | -3.12
C53U A90U C101A | -2.09
G51U A68U U106G G110U C124A | -5.92
G52C G69A C114U | -5.1
C53A U55A G71C C88U C89U | -1.28
G52A C72G G128C U130G | -1.87
U54A C124A G128U | -0.136
C53A C79A G128A | -3.36
C53G U59G C94G | -0.648
U54C C94A G113U | -3.83
G52U C73A | -0.528
U54A C79A G93U C114U G117A | -6.48
U54A G60C | -0.566
